Reference: the domain aggregation screens of Martell et al. (2025)

Experiment: soluble fraction after stress (log2 fold change); higher = more stays soluble; pooled small domains, quantitative proteomics
Conditions: stress: 75 degC
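Also: 20 min heating vs room temperature control held 20 min.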

Sequence	soluble fraction (log2)
HMGIIYGKNPVLEAISSGTTINKIYAQTSNKEIDSVIKEALKRKIIVVNTDKQKLDKMIDGKNSQGIIASI	0.025
HMGIKAADIVTNDIQFNTQAQFDKYKDLYPTLGWGNYDPNKTYTMQGFKNKLKPNELFTGTPNLKIEDT	0.486
HMGIKDRIVYIMEKEKLSIPLFAKKIGIGPSTLLHIIRGKNAPSLQVVQAIHKAYPDIDLNWLI	-1.66
HMGIKSSASLQEAAEKAQSAYYDIEHSGVATAVDIQRAWVAMVAAQIDAGEKLDSGTITLYERLKTST	0.0117
HMGIMNFDTWLKSLPGTPTPTIAAKKSGLAAPTLLRHVERGYSTADNVIAIAKAYGVSPIDALVDNGML	-0.956
HMGIMSEITHRVLRLLGLLESRSTWTGSDLAERLGVTQRTIRRDVIRLRELGYQVDSVQGLDGGYRMS	-2.65
HMGIPVSIGQLDFNQARGNLALQVRASDFAALEQLRQRLGQTGESVQLGSASRDGDAVSARVVIGGQ	0.0963
HMGIQQNHMTLHARSVASSANVPAEHFDTLVEKLIESGDIKVWKAREILMNLSRQHEEILDES	-0.789
HMGISGSDLEKMIRNILVNNTDVVETIKSGQDKKGKKQKFLQGLIMKEARGQTDPREAASLLAKLLE	-0.108
HMGITMFGQNLKKLRTSKNLSQSKLSKILGISSSTIGMYEQGRRFPDQTILTKIADFFDVSTDYLLGR	-0.819
HMGIVAQLPTIRVNGKTLYYYDAQSGDNIYSIAEKLGVTVEDIRANNPGVADGVKPRMRLFFPTSLAK	-0.377
HMGIVYGVIKENWDQDHPGMVKVEILQGESGKNVSDWIPVMSPYAGKEFGAYALPEIGTQAVVAFE	0.24
HMGIYDQAAAAYIEFVESKNRAPKWNELIDALYKENGKDWIDRSTLHGLLRRKEFQELLAQKRKEHLV	-0.76
HMGIYFIIAAKNQENNIEEFIRTTLFRIVYGKEESINNITLVDLKSKDNTKNIMEEIARENENVKV	-0.641
HMGKAPREVQVGELLRVPALNAEGEVLRRDGESVELSIQGKKLRLPLAQLEAFSPRRFARRGEGKVRGRIE	0.591
HMGKDLLGYEVFAESGDLVGILKDVMWLPHSDVYVITKGGKEFLIPVIPEVVKGINHEQGVIVISPMEGLL	-0.234
HMGKDTLKLKKNAIPYDENGKKLTNLGYSYIKKTTVLNYYGTKIINGSTYYFLGDGVYIKAANVGTTSH	-2.56
HMGKEYERALQQVTKSEIDSDEKLQQQMDALVNSPRISDKEDAWALLLVKKLRNEGVEWDELPDVLSERVQ	0.159
HMGKGGVAYLLESEFGIELPKDMQREFGPIANDIVDSLGREVSGAELKSMFWKEYIERETPFLLLLVTGQL	0.404
HMGKIFSELTPREIEVVRLIADGLSNQQIAEELFLSNGTVRNHISTILEKTGLEHRTQIAVMWLR	-0.139
HMGKKIVERRNTILNMVNKYGTLDFPQLRDAFPDVSDVTLRKDLQYLDSTKQAIRTHGGIKSI	-0.0604
HMGKLQFREKLNGILELGKEKHRVLTMEDVEKYFEEDALSEEQMELVYDYLLSQKIAVTGYVKK	-0.509
HMGKPPNNRIHRAKRDYALNLVKEHYPDFGPTLAAEKLAEHHGFTVSRETLRKWMIEDGIWLSRKQRR	-0.475
HMGKQIKEIVEEYYDSTSKNSPVGGSWKTSLDGVDLTSPNITIWTRTKIKYVDGSESIVTPQSL	-0.105
HMGKRPTIQMVAEMAGVSRGTVDRVLNGRSYVSAQVRQRVLAALQETGYISSREHHQQALQS	-0.691
HMGKRRGLKVAEEVFADRGYNPDGTLVNRSLPGAFVKDPDEAIARVIKMVKTKKVTAVNGEEIDIAADSI	-0.0957

Sequence	soluble fraction (log2)
HMGKSDEIFIQKSALYEELGQPDRALEMIYSALKSDSLNIDVLHRLVTLLINQNKNEDAILYNQKIID	-0.203
HMGKTEETLQMEKLVEALRRSGRMKYEDAYRIVYAAFPDAKDFEGMLSGAIRAGFIELQMGNDGAFLRAL	-0.859
HMGKVNGFEITVIEGKNVVGSITPRQAIAKNSDGVIQLRGEQSFSATDQVLINELAFYIKSNNLKA	-1.31
HMGLAALLQSGPVAGTVLSHQPGGKVVIAFQGQAYPLNLKGRTLQPGQSVLARMAGEQISLEVI	-1.14
HMGLDERNLKLFAASLLEQAGKKITESTMTYLLDKTGSDMENIQNEVEKIIGYTMNHTVVTTEDIDAV	0.0873
HMGLDPVFKKWVDDNPWYTENRVLRALTHDYAEELKQTNPQLVGVEFLDQVKKRVQADHPEFFQ	0.0133
HMGLGDLEVVDSIGKIRRDGQQMILAFGRHKGRDVQEVYNEDPRYINWLLSPKGIEDENGRGKVRDYLGIN	0.0837
HMGLKQADFEELASRIFTVLEEKSMTPAEIVRKLNLEPDRISIVIQYLLDEGKLNIKDGFINNSA	-0.29
HMGLLGIYPNPVEGGSVRLLSDADLFGSRFELYDQSGKLVLNGFVTEGNFVSVKGISSGLYISVSYT	0.245
HMGLLGTDISAETMIGYFKKIDLGFDEETQEVIVPSWRQDLLRDADIAEEVARFYGYDNIPTTLPSGEST	0.0485
HMGLNLIGLKRSGFAPEEVKAMTRAYMYIFKSAEGNFESRLAKAHEKYKDDALIMEMVEFIDDALKG	-1.09
HMGLQEADKQDRIARMKELISFLNEAAKAYYQEGREIVSNLEYDKAYDALLSLEKESGVVLSGSPSQNVG	0.321
HMGLRERLLNYIAYKGIDKATLERKSGLSNDAVNKMGDNTRVSTLDKISNAFPDINIAWLKTGVGEMILG	-0.306
HMGLSAALKARLREVINEMAKSGAQPKLREWALAEGIGNFAKPETPEAAEAVIAKAQELLAEA	0.543
HMGLSASVIQMFADLGYTSEGRSTKEMITDYQIDHSIIKNSTEDGAGTYGPRTKASLSTVHAQYI	-0.0653
HMGLSENALAMLKQQETVLIRLIDGRGNQGALASINLIVSRILNLDIVDRTPEDLLRVIASEGEQND	-3.81
HMGMIRFSKEEQMLMMLYSPGSRLGLIAELESMKLQLNSRERKLRNLAESVLKKLEQITDEEFMQFDF	-2.19
HMGMNSGQADFRGISLALSVDAEAEAQRLFTALADGGQVQMPLSKTFFSPAFGMVADRFGVGWMVVTN	0.238
HMGMSENIDKVAGGIPYKVEGNKAIINEPLDDATKERLMGKAKEHGYHAAPNQAGGITITLK	-0.0517
HMGMSKQKQSSLVRIIMQEISDANEGRMKMSQIIDAALIKGISDSTVRSVISRLSTTGAIYEPQTGTYEW	-0.649
HMGNEEEEAIREAEEAIERVLEYGEPQELNPQNGFIRRLQHQLAEKSHLSSESVGVEPYRRVRISK	0.193
HMGNFFDSAILALKNAIQENYGGNVSQAARSLGISVPTLHTWIKGDRKPSLEKLSPILDALNAKIVL	-1.06
HMGNFGDLLKILLDEKELSMGELSKKSGIDKSTISRIANNKQKPNINHLEKMAIHLNINLEELLKASGYEF	-0.666
HMGNFQNIFRKLRTSSNLTQNAIAEKLGISRSTIGMYETGAREPDFETLEKIADYFNVDTDFLLGRTNQTT	-0.315
HMGNKDAQLVHLAKMNEIQIELMKTGRGYMVTDQNVYNLAKKMGENMGFKHPDLFLTDPAKV	-0.0897
HMGNKDIEILFSEIVEMRNRIIHGFRITSKQGEQILATKTRKKDGNIQFEITKEYLLDFIKKNEELSDMLY	-2.46

Sequence	soluble fraction (log2)
HMGNKWALLVVFILNENGSTRFNQLARQIPDISTKVLSNTLQILEADGLVKRTVFPEVPIRVEYELTATGK	-3.92
HMGNLIIFYDEGIGSGPLMKAVNDSGVSLVYEYKNLHGIAIRPSAKTNIQDAIAYFQKVNGVLSVEQ	-2.92
HMGNNKLVLSLAVALKNTPNFLKNYNYKISKDKKFIEILLSKQINEVSDIIINLKKNNINIVDLNIKKR	-1.85
HMGNNTEITYSEFIRQAEAGNVQYVTVDGEKLLISATDGKSYYTINPRDDQMTDRLLNSGVEIRAEPQ	0.021
HMGNRQEQVRIIRDLWRQLADAGQPVPAKHLTLDLDALDATQLTKLEDQAHGWLAKLSAQADLADAA	-0.0412
HMGNTMIVILKHEARQEQIDRLKQFLLGMGLRIDESKGENSTILGLVGDTTRVDADLISSLDAVEAVRRV	-0.891
HMGNWENVEKETTEAIMAVKNGEAVWVDLAPANRMIRQMQHELVEQYGLLSQSYGKEPKRRIRIFQNP	-0.462
HMGPDALSIGRRVRQVRTARGMTLDELAAAVSRAPSQLSMIETGKREPKLSLLQAIARALGTTIDALLT	-0.856
HMGPDGLFAKFREPETGKDLLITQNVFVEQVLIKGVLTRTLTDAEANTYRAPFVNPEKRFPIYVWPNELP	0.014
HMGPEAFPVPYIVDIELDRAIYVIEQSGFIVGQKLEANDDNVPRGFVISQNPAAGTKLGPNSVVDLVISSG	-1.18
HMGPEQLIGKTGIAASELAPRGEVKIEGQIWRAETVGDHVKQGEPVEVVSREGLILRVKPKHPQTRG	0.0258
HMGPEVQLAYSEFLAKVKVGEVNDVMVKGNEIHGHFSDGRTFSTYSPNDPDLVEKLNKNKVMIKAAPP	0.00889
HMGPFYFDQDGKAYSGLLNRNGEILYFADPFNAAVKNTTKTIDGKTYTFNQNGRATSIDGIPLEPP	0.0904
HMGPGDTTIPTTIIGMSLEEARNELSAAGLLVARIIPVDSNSRTGTVLKITPDAGSIIKAGSGVELEIAS	-0.101
HMGPGFVGGSVLSGGNRGEGDPVANAQVFITDMDDNVVAFTKTDAEGNFDMTNLAYGDYKMYVDILNK	0.126
HMGPGSYVVNVKPYAYVSINGRDYGRTPVGPIRLDPGTYKVVFTHEHRPSFSRTIVVEAGRETFETFPYPG	-2.06
HMGPLPIDSRYFNNLVPYTGITHVNSVIPEAERHIGLTVVVKTGSTYSEYWYRTGVTNSSLELKT	-1.41
HMGPLYARVKAIVLARIMGGDWPPGTALPAEMELARALGVSQGTVRKALDALTAEQVVVRRQGSGTYVAE	-1.75
HMGPNYYDILEIPTDASPSEITQAFRKKALEWHPDKNPNNLEEATSRFIEIVEAYRVLSSKDSKLQYDTG	-0.213
HMGPSVGMTVGEMERDLIFRTLETVGDNRTKAADMLGISIRTLRNKLNEYREAGFEWPRKAG	-0.223
HMGQAVTMLKAGRLLANAKGTGAPVRSLEPGMLLYPTGVKEGTMWEVEDEMGNKGWVNSTLMETA	-0.6
HMGQAVTVPELKGLSFDEAIEKLDDAGLKYEVVDSNYVEDMKPGTVFETLPEAGSRVKPRRIVFLTINAF	-0.257
HMGQDTTIVVRRGESLLGIAARLLPATDFYTTGELAEGIRTASGMENDRLIPGQTLRVPLNSG	-0.24
HMGQGEISVPRLEGLSLRETSELLGLFGLRLEAAGSGIALSQNPPAGARVKAGDVIQVDFGEPGN	0.0756
